Test results reported in publication PMC6618058.

Legend:
[1] = target: Biotinylated HLA-A*02:01 with the MART-1(26-35) decapeptide …
[2] = target: HLA-A*02:01 with the MART-1(27-35) nonapeptide …, not tagged

dH [1]: -58.6 kJ/mol | MIP‐1β secretion (ELISA) by CD8+ T cells transduced with the MEL5 TCR in response to titrated … presented by T2 cells; sensitivity against that of DMF4 TCR-transduced T cells [2]: 100 fold
Substance: MEL5 TCR
